Test results reported in patent US20210301026A1 (ULTRAHUMAN TWELVE, published 2021).
Changes are numbered by the printed parent chain. In names and notes the source's numbering stands.

T1: monomeric cynomolgus monkey CSF1R ectodomain protein (cynomolgus monkey, UniProt P07333 20-517 (human entry))
T1 construct: also called monomeric cyno CSF1R; Cyno CSF1R
T1 chain: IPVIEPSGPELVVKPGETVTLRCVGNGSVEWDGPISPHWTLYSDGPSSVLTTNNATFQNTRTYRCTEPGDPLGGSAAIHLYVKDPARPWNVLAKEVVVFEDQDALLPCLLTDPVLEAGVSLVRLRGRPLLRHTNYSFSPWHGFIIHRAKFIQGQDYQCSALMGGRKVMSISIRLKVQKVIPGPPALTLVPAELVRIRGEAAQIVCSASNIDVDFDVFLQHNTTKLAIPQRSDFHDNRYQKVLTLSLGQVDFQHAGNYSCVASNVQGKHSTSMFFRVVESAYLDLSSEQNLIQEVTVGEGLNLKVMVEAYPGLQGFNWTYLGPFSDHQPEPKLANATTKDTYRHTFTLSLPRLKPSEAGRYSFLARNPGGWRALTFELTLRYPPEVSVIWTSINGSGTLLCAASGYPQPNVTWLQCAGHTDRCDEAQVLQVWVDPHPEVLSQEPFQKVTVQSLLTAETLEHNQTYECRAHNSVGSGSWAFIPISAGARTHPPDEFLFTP

B1: MH17 (antibody, human IgG4, V domains shown)
VH: QVQLVQSGAEVKKPGSSVKVSCKASGYTFSSAYMIWVRQAPGQGLEWMGDINPYNGGANYAQKFQGRVTITADESTSTAYMELSSLRSEDTAVYYCAREGPYFSNLYVMDYWGQGTLVTVSS
VL: EIVLTQSPATLSLSPGERATLSCRASQSVSYEGENYLNWYQQKPGQAPRLLIYAASNRATGIPARFSGSGSGTDFTLTISSPEPEDFAVYYCQLSNEDLLTFGGGTKVEIK
notes: Deimmunized MH5 derivative, human IgG4(S228P)/Ckappa IgG
B2: MH16 (antibody, human IgG4, V domains shown)
VH: B1 VH
VL: B1 VL with L50S, N57D
notes: Deimmunized MH5 derivative, human IgG4(S228P)/Ckappa IgG; also called mAb-5
B3: MH37 (antibody, human IgG4, V domains shown)
VH: B1 VH with A32S, Q114R
VL: B1 VL
notes: as for B1
B4: MH29 (antibody, human IgG4, V domains shown)
VH: B1 VH with A32N, Q114R
VL: B1 VL
notes: as for B1
B5: MH40 (antibody, human IgG4, V domains shown)
VH: B1 VH with A32H, Q114R
VL: B1 VL with L50S, N57D
notes: as for B1
B6: MH25 (antibody, human IgG4, V domains shown)
VH: B1 VH with A32H
VL: B1 VL
notes: as for B1
B7: MH12 (antibody, human IgG4, V domains shown)
VH: B1 VH with A32N
VL: B1 VL with L50S, N57D
notes: Deimmunized MH5 derivative, human IgG4(S228P)/Ckappa IgG; also called mAb-4
B8: MH20 (antibody, human IgG4, V domains shown)
VH: B1 VH with A32S
VL: B1 VL with L50S, N57D
notes: as for B1
B9: MH21 (antibody, human IgG4, V domains shown)
VH: B1 VH with A32S
VL: B1 VL
notes: as for B1
B10: MH41 (antibody, human IgG4, V domains shown)
VH: B1 VH with A32H, Q114R
VL: B1 VL
notes: Deimmunized MH5 derivative, human IgG4(S228P)/Ckappa IgG; also called MN41
B11: 29A03 (antibody, human IgG4, V domains shown)
VH: B1 VH with A32N, N59T, A61N, G100P
VL: B1 VL with S30E, P82L, E97Q
notes: Library-derived clone, tested as human IgG4(S228P)/Ckappa IgG; framework residue limits counted on the grafts
B12: MH4 (antibody, V domains shown)
VH: B1 VH with A32Y
VL: B1 VL with E32Q, N38A, A54D, P82L, E97Q
notes: Designer clone, human IgG4(S228P)/Ckappa IgG
B13: MH6 (antibody, V domains shown)
VH: B1 VH with A32Y
VL: B1 VL with N38A, P82L, E97Q
notes: as for B12
B14: 29B07 (antibody, human IgG4, V domains shown)
VH: B1 VH with S30T, A32Y, M34I, N59T, G100P
VL: B1 VL with S30E, E34D, P82L, E97Q
notes: as for B11
B15: 30D02 (antibody, human IgG4, V domains shown)
VH: B1 VH with A32Y, A58T, N59T
VL: B1 VL with S30E, E32Q, P82L, E97Q
notes: as for B11
B16: MH11 (antibody, human IgG4, V domains shown)
VH: B1 VH with A32N
VL: B1 VL with L50A, L51A
notes: as for B1
B17: MH10 (antibody, human IgG4, V domains shown)
VH: B1 VH with A32N
VL: B1 VL with L50S, L51A
notes: as for B1
B18: MH24 (antibody, human IgG4, V domains shown)
VH: B1 VH with A32H
VL: B1 VL with L50S, N57D
notes: as for B1
B19: MH32 (antibody, human IgG4, V domains shown)
VH: B1 VH with Q114R
VL: B1 VL with L50S, N57D
notes: Deimmunized MH5 derivative, human IgG4(S228P)/Ckappa IgG; also called MN32

The binders below were run against T2, human insulin (human, UniProt P01308 25-54; P01308 90-110, limits assumed) (assay: ELISA on human insulin (development risk, polyreactivity), binding score).
T2 construct: Coated antigen of the polyreactivity ('PK-risk indicator') ELISA
T2 sequence (P01308 25-54 limits assumed, chain 1 of 2): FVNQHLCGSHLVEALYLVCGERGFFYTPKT
T2 sequence (P01308 90-110 limits assumed, chain 2 of 2): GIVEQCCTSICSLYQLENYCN

| binding result | Binder |
| --- | --- |
| no binding | B1 |
| no binding | B2 |
| no binding | B3 |
| no binding | B4 |
| no binding | B5 |
| no binding | B6 |
| no binding | B7 |
| no binding | B8 |
| no binding | B9 |
| no binding | B10 |

Each binder was assayed against T3, monomeric human CSF1R ectodomain protein (human, UniProt P07333 20-517) (assay: AlphaScreen competition with mu0301 IgG4(S228P) for biotinylated monomeric human CSF1R).
T3 construct: also called biotinylated monomeric human CSF1R
Procedure: The AlphaScreen assay (Perkin Elmer) was performed in a 25 μl final volume in 384-well white microtiter plates (Greiner). The reaction buffer contained 1×PBS pH 7.3 (Oxoid, Cat. nr. BR0014G) and 0.05% (v/v) Tween® 20 (Sigma, Cat. nr. P9416). Purified IgG samples were titrated in three fold serial dilutions starting at 500 nM final concentration and incubated with biotinylated human CSF1R for 20 minutes at room temperature. […] The emission of light was measured in the EnVision multilabel plate reader (Perkin Elmer) and analysed using the EnVision manager software. Values were reported as Counts Per Second (CPS) and corrected for crosstalk. The EC50 values were calculated using the […] in GraphPad Prism software (GraphPad Software, La Jolla, Calif.).

| IC50 [nM] | fold lower epitope competition than hu0301 [fold] | Binder |
| --- | --- | --- |
| 4.6 | – | B11 |
| 18.9 | > 2 | B12 |
| 7.74 | > 2 | B13 |
| 3.86 | – | B14 |
| 3.92 | – | B15 |

What follows are binders tested against T3, monomeric human CSF1R ectodomain protein (assay: SPR Biacore, IgG captured, monomeric CSF1R analyte).
Procedure: (§1) Affinity (KD) of purified IgGs was determined via SPR with antigen in-solution on a Biacore 3000 (GE). A mouse anti-human antibody (CH1 specific) was immobilized on a CM5 Sensor Chip to a level of 2000 RU in acetate buffer at pH 4.5 using amine coupling following the Wizard instructions for two channels. One channel was used for background signal correction. The standard running buffer HBS-EP pH 7.4 was used. Regeneration was performed with a single injection of 10 μl of 10 mM Glycine at pH 1.5 at 20 μl/minute. IgG samples were injected for 2 minutes at 50 nM at 30 μl/min followed by and off-rate of 60 seconds. The monomeric ectodomain protein (human CSF1R or cynomolgus monkey CSF1R) was injected in two fold serial dilutions from 100 nM down to 3.1 nM, for 2 minutes at 30 μl/min followed by an off-rate of 300 seconds. The obtained sensorgrams were analysed using the Biacore 3000 evaluation (BIAevaluation) software. The KD was calculated by simultaneous fitting of the association and dissociation phases to a 1:1 Langmuir binding model.
(§2) Biacore analyses of binding affinity were performed for all IgGs to solution-phase, monomeric human and cyno CSF1R proteins (Table 6). […] Affinity differentials of less than 3-fold between human and cyno target orthologs are highly beneficial in pre-clinical drug development analyses as they allow more accurate design and interpretation of e.g. monkey safety, PK and PD modelling experiments.

| Kd [nM] | koff [s⁻¹] | kon [M⁻¹ s⁻¹] | Binder |
| --- | --- | --- | --- |
| 0.39 | 0.0006 | 1.6e+06 | B11 |
| 1.9 | 0.0024 | 1.3e+06 | B12 |
| 0.88 | 0.0012 | 1.3e+06 | B13 |
| 0.34 | 0.00051 | 1.5e+06 | B14 |
| 0.48 | 0.00049 | 1e+06 | B15 |

Target: T1, monomeric cynomolgus monkey CSF1R …
Assay: SPR Biacore, IgG captured, monomeric CSF1R analyte
Procedure: as §1, §2

| Kd [nM] | koff [s⁻¹] | kon [M⁻¹ s⁻¹] | Binder |
| --- | --- | --- | --- |
| 1.2 | 0.00032 | 270000 | B11 |
| 2.9 | 0.0014 | 470000 | B12 |
| 1.3 | 0.00064 | 510000 | B13 |
| 0.79 | 0.00025 | 310000 | B14 |
| 1.7 | 0.00032 | 190000 | B15 |

Target: T3, monomeric human CSF1R ectodomain protein
Assay: SPR Biacore, IgG captured, monomeric CSF1R analyte
Remark: another data set of the same source
Procedure: as §1

| Kd [nM] | koff [s⁻¹] | kon [M⁻¹ s⁻¹] | fold of the affinity of hu0301 [fold] | Binder |
| --- | --- | --- | --- | --- |
| 0.834 | 0.00112 | 1.35e+06 | – | B1 |
| 0.444 | 0.000897 | 2.02e+06 | ≤ 2 | B2 |
| 0.562 | 0.000961 | 1.71e+06 | – | B4 |
| 0.776 | 0.00119 | 1.53e+06 | – | B16 |
| 0.553 | 0.00113 | 2.05e+06 | – | B5 |
| 0.624 | 0.00088 | 1.41e+06 | – | B17 |
| 0.634 | 0.000921 | 1.45e+06 | – | B6 |
| 0.342 | 0.000832 | 2.43e+06 | ≤ 2 | B7 |
| 0.709 | 0.00177 | 2.49e+06 | – | B8 |
| 0.397 | 0.000976 | 2.46e+06 | ≤ 2 | B18 |
| 1.23 | 0.00189 | 1.54e+06 | – | B9 |
| 0.62 | 0.00127 | 2.04e+06 | – | B19 |
| 0.851 | 0.00109 | 1.28e+06 | – | B10 |

Target: T1, monomeric cynomolgus monkey CSF1R …
Assay: SPR Biacore, IgG captured, monomeric CSF1R analyte
Remark: another data set of the same source
Procedure: as §1

| Kd [nM] | koff [s⁻¹] | kon [M⁻¹ s⁻¹] | fold of the affinity of hu0301 [fold] | Binder |
| --- | --- | --- | --- | --- |
| 1.33 | 0.000906 | 683000 | – | B1 |
| 0.785 | 0.00075 | 956000 | ≤ 2 | B2 |
| 0.913 | 0.000813 | 891000 | – | B4 |
| 1.29 | 0.00103 | 802000 | – | B16 |
| 0.948 | 0.00101 | 1.06e+06 | – | B5 |
| 1.07 | 0.000754 | 705000 | – | B17 |
| 1.03 | 0.000758 | 733000 | – | B6 |
| 0.557 | 0.000726 | 1.3e+06 | ≤ 2 | B7 |
| 1.24 | 0.00134 | 1.08e+06 | – | B8 |
| 0.777 | 0.000833 | 1.07e+06 | ≤ 2 | B18 |
| 1.84 | 0.00137 | 746000 | – | B9 |
| 0.979 | 0.00103 | 1.05e+06 | – | B19 |
| 1.46 | 0.000972 | 666000 | – | B10 |
